Experimental data as given in patent US20190119389A1 (POTENZA THERAPEUTICS, published 2019).
Changes are numbered by the printed parent chain. Names and notes keep the numbering of the source. One block for each binder: values may come before it.

Tests used:
Human NRP-1 His [1] = biological target: T1, Human NRP-1 His (human, UniProt O14786 22-856); experiment: MSD-SET solution equilibrium titration, Fab
T1 construct: Recombinant monomeric protein; Biotinylated in the MSD-SET assay; also called hNRP-1; not shown: His tag

recombinant human NRP-1 [2] = biological target: T2, recombinant human NRP-1 (human, UniProt O14786 22-856, limits assumed); experiment: blocking ELISA, average of n=2: SEMA3A coated, biotinylated human NRP-1 preincubated with IgG4 antibody; competitor SEMA3A
T2 construct: also called biotinylated human NRP-1
Target sequence in this assay (O14786 22-856 V179A limits assumed): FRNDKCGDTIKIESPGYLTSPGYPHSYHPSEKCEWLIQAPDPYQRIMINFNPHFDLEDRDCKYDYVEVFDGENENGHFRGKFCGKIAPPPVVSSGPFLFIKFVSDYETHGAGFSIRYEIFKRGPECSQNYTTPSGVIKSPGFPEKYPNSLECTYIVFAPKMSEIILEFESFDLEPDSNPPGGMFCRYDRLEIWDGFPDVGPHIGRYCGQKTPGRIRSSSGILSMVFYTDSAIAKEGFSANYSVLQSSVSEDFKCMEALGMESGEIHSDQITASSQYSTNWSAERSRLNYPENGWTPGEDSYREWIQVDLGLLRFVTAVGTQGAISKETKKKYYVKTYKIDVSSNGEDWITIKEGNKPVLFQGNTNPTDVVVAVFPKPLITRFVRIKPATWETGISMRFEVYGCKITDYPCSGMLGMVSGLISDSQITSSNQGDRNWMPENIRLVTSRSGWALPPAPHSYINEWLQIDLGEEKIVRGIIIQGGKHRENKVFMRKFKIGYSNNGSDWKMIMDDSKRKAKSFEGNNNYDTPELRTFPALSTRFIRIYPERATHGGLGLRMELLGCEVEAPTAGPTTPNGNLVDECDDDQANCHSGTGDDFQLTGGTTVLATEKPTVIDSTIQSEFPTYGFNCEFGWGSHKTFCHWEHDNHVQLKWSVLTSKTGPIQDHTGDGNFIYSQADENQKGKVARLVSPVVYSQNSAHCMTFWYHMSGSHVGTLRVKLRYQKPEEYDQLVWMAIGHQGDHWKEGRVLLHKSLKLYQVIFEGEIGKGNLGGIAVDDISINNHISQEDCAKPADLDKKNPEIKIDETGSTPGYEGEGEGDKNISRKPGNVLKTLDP

Human NRP-1 His [3] = biological target: T1, Human NRP-1 His; experiment: BLI Octet QKe, IgG4 S228P on AHC sensor, multi-concentration monomeric antigen, global 1:1 fit
Target sequence in this assay (O14786 22-856 V179A limits assumed): as above

Cyno NRP-1 His [4] = biological target: T3, Cyno NRP-1 His (cynomolgus monkey, UniProt O14786 22-856 (human entry), limits assumed); experiment: as above
T3 construct: Recombinant monomeric protein; also called cynomolgus monkey NRP-1-His; cNRP-1; not shown: His tag
T3 chain: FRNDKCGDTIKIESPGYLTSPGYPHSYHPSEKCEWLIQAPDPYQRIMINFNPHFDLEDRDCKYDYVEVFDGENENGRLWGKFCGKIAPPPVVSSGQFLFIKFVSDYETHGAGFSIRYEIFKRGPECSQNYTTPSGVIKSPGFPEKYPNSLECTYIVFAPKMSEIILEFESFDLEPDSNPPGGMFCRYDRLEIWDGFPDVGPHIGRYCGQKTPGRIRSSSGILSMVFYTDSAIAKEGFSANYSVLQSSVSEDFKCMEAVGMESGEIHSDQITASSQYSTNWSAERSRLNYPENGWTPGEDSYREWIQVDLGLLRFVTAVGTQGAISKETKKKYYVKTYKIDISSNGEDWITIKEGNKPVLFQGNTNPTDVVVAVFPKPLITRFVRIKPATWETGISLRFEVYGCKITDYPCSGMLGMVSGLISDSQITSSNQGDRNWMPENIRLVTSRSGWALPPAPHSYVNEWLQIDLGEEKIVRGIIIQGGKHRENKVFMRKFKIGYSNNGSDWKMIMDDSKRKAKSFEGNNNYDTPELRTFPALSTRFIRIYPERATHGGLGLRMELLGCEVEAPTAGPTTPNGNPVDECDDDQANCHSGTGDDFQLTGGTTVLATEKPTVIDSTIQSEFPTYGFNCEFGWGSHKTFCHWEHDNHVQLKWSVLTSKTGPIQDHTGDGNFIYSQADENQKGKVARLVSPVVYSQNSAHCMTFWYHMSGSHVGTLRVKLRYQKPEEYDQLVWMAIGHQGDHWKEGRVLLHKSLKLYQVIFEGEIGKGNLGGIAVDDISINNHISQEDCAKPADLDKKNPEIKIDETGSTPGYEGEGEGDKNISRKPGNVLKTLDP

Mouse NRP-1 His [5] = biological target: T4, Mouse NRP-1 His (mouse, UniProt P97333 22-856); experiment: as above
T4 construct: Recombinant monomeric protein; also called mNRP-1; not shown: His tag
T4 sequence (P97333 22-856 limits assumed): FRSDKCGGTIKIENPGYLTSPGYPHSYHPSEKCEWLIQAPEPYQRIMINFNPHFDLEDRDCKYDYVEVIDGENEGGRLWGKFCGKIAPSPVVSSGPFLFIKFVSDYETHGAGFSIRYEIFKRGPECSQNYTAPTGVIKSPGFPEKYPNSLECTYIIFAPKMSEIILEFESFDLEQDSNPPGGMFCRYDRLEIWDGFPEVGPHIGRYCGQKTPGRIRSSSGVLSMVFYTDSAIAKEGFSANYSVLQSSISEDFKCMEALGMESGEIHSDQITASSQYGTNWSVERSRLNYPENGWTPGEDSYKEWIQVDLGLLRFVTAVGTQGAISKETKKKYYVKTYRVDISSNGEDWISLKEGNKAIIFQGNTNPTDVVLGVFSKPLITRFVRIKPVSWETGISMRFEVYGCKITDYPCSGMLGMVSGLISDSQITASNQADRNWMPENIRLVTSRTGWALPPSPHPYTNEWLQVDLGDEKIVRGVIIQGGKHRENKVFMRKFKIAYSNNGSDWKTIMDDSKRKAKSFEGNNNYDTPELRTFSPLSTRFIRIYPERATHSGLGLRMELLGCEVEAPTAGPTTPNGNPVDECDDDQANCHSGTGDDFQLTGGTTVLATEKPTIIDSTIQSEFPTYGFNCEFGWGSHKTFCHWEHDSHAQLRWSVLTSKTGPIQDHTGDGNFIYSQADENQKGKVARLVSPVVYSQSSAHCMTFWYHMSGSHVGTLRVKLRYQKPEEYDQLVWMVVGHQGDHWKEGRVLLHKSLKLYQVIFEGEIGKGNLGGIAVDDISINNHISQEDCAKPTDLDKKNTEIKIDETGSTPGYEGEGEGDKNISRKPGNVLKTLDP

Human NRP-1 His [6] = biological target: T1, Human NRP-1 His; experiment: BLI ForteBio, IgG1 N297A on AHQ sensor, 100 nM monomeric antigen, 1:1 fit
Target sequence in this assay (O14786 22-856 V179A limits assumed): as the sequence (O14786 22-856 V179A limits assumed) above

Cyno NRP-1 His [7] = biological target: T3, Cyno NRP-1 His; experiment: as above
Mouse NRP-1 His [8] = biological target: T4, Mouse NRP-1 His; experiment: as above
recombinant human NRP-1 [9] = biological target: T2, recombinant human NRP-1; experiment: blocking ELISA: SEMA3A coated, biotinylated human NRP-1 preincubated with IgG1 antibody; competitor SEMA3A
Target sequence in this assay (O14786 22-856 V179A limits assumed): as above

recombinant human NRP-1 [10] = biological target: T2, recombinant human NRP-1; experiment: blocking ELISA: human NRP-1 coated, VEGFA added with IgG1 antibody; competitor VEGFA
Target sequence in this assay (O14786 22-856 V179A limits assumed): as above

recombinant human NRP-1 [11] = biological target: T2, recombinant human NRP-1; experiment: blocking ELISA, average of n=2: human NRP-1 coated, VEGFA added with IgG4 antibody; competitor VEGFA

IC50 (recombinant human NRP-1 [2]): 2.6 nM | Kd (Human NRP-1 His [3]): 2.4 nM | Kd (Cyno NRP-1 His [4]): 4.5 nM | Kd (Mouse NRP-1 His [5]): 5.1 nM
B2: MAB2 IgG4 S228P (antibody, V domains shown)
VH: QVQLVQSGAEVKKPGASVKVSCKASGYTFRSYYMLWVRQAPGQGLEWMGIIDPSDGSTSYAQKFQGRVTMTRDASTSTVYMELSSLRSEDTAVYYCARGARRITGYGMDVWGQGTTVIVSS
VL: DIQMTQSPSSVSASVGDRVTITCRASQGISSWLAWYQQKPGKAPKLLIYAASNLQSGVPSRFSGSGSGTDFTLTISSLQPEDFATYYCQQASVFPFTFGGGTKVEIKR

Kd (Human NRP-1 His [1]): 0.32 nM
B3: MAB1 Fab (Fab, V domains shown)
VH: B2 VH with E10G, A74T, S75P, I118T
VL: DIQMTQSPSSVSASVGDRVTITCRASQGISSWLAWYQQKPGKAPKLLIYAASNLQSGVPSRFSGSGSGTDFTLTISSLQPEDFATYYCQQASVFPFTFGGGTKVEIK

Kd (Human NRP-1 His [1]): 0.18 nM
B6: MAB15 Fab (Fab, V domains shown)
VH: QVQLQQWGAGLLKPSETLSLTCAVYGGSFVKYYWSWIRQPPGKGLEWIGDIWHSGMTNYNPSLKSRVTISVDTSKNQFSLKLSSVTAADTAVYYCARGPGYDSSGYSRRFDPWGQGTLVTVSS
VL: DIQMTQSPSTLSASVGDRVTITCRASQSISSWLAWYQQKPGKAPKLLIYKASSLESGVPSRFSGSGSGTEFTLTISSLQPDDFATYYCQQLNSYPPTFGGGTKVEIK

Kd (Human NRP-1 His [1]): 0.064 nM
B8: MAB10 Fab (Fab, V domains shown)
VH: EVQLLESGGGLVQPGGSLRLSCAASGFTFSSVAMVWVRQAPGKGLEWVSAISGSGGATYYADSVKGRFTISRDNSKNTLYLQMNSLRAEDTAVYYCAKDPGYDSSRYYYSNYGMDVWGQGTTVTVSS
VL: DIQMTQSPSSLSASVGDRVTITCRASQSISSYLNWYQQKPGKAPKLLIYGASSLQSGVPSRFSGSGSGTDFTLTISSLQPEDFATYYCQQTYSLYTFGGGTKVEIK

Kd (Human NRP-1 His [6]): 0.485 nM | Kd (Cyno NRP-1 His [7]): 0.48 nM | Kd (Mouse NRP-1 His [8]): 0.446 nM | IC50 (recombinant human NRP-1 [9]): 0.8 nM | IC50 (recombinant human NRP-1 [10]): 5.9 nM
B10: MAB11 (antibody, V domains shown)
VH: B8 VH with K65E, N84S
VL: B8 VL

IC50 (recombinant human NRP-1 [2]): 2.9 nM | Kd (Human NRP-1 His [3]): 8.4 nM | Kd (Cyno NRP-1 His [4]): 12 nM | Kd (Mouse NRP-1 His [5]): 6.6 nM
B13: MAB5 IgG4 S228P (antibody, V domains shown)
VH: QVQLVQSGAEVKKPGASVKVSCKASGYTFTSYYMHWVRQAPGQGLEWMGIINPQGGDTSYAQKFQGRVTMTRDTSTSTVYMELSSLRSEDTAVYYCARDRGMYYASGFGPWGQGTLVTVSS
VL: EIVMTQSPGTLSLSPGERATLSCRASQSVSSSYLAWYQQKPGQAPRLLIYGASNRATGIPDRFSGSGSGTDFTLTISRLEPEDFAVYYCQQLSSFPITFGGGTKVEIKR

Kd (Human NRP-1 His [1]): 0.28 nM
B14: MAB5 Fab (Fab, V domains shown)
VH: B13 VH
VL: EIVMTQSPGTLSLSPGERATLSCRASQSVSSSYLAWYQQKPGQAPRLLIYGASNRATGIPDRFSGSGSGTDFTLTISRLEPEDFAVYYCQQLSSFPITFGGGTKVEIK

Kd (Human NRP-1 His [6]): 4.72 nM | Kd (Cyno NRP-1 His [7]): 5.54 nM | Kd (Mouse NRP-1 His [8]): 6.98 nM | IC50 (recombinant human NRP-1 [9]): 1.8 nM | IC50 (recombinant human NRP-1 [10]): 7.4 nM
B15: MAB6 (antibody, V domains shown)
VH: B13 VH with E10K, A40V, G109N
VL: B14 VL

Kd (Human NRP-1 His [1]): 0.45 nM
B16: MAB6 Fab (Fab, V domains shown)
VH: B13 VH with E10K, A40V, G109N
VL: B14 VL

The next lines start with the binder.

B1: MAB13 Fab (Fab, V domains shown)
VH: QVQLQQWGAGLLKPSETLSLTCAVYGGSFRGYYWEWIRQPPGKGLEWIGEISHSGSTNYNPSLKSRVTISVDTSKNQFSLKLSSVTAADTAVYYCARARPYREPYGMDVWGQGTTVTVSS
VL: B3 VL with M4L, G28D, N53S, A91E, S92L, V93A, F96R
Kd (Human NRP-1 His [1]): 0.54 nM

B4: MAB3 IgG4 S228P (antibody, V domains shown)
VH: QAQLVQSGAEVKKPGASVKVSCKASGYTFSRYYMHWVRQAPGQGLEWMGIINPLGGSTLYAQKFQGRVTMTRDTSTSTVYMELSSLRSEDTAVYYCARDLGYYGSGMHAWGQGTLVTVSS
VL: B2 VL with S31R, N53S, S92N, V93L, F94L
IC50 (recombinant human NRP-1 [2]): 2 nM | Kd (Human NRP-1 His [3]): 3.7 nM | Kd (Cyno NRP-1 His [4]): 7.3 nM | Kd (Mouse NRP-1 His [5]): 4.4 nM

B5: MAB4 IgG4 S228P (antibody, V domains shown)
VH: B4 VH with A2V, A109V
VL: B2 VL with S31R, N53S, S92N, V93L, F94L
IC50 (recombinant human NRP-1 [2]): 2.3 nM | Kd (Human NRP-1 His [3]): 3.1 nM | Kd (Cyno NRP-1 His [4]): 4.5 nM | Kd (Mouse NRP-1 His [5]): 2.3 nM

B7: MAB10 (antibody, V domains shown)
VH: B8 VH
VL: B8 VL
Kd (Human NRP-1 His [6]): 0.868 nM | Kd (Cyno NRP-1 His [7]): 0.866 nM | Kd (Mouse NRP-1 His [8]): 0.746 nM | IC50 (recombinant human NRP-1 [9]): 1.5 nM | IC50 (recombinant human NRP-1 [10]): 6.7 nM

B9: MAB12 IgG4 S228P (antibody, V domains shown)
VH: B8 VH with K65E
VL: DIQMTQSPSSLSASVGDRVTITCRASQSISSYLNWYQQKPGKAPKLLIYGASSLQSGVPSRFSGSGSGTDFTLTISSLQPEDFATYYCQQTYSLYTFGGGTKVEIKR
IC50 (recombinant human NRP-1 [2]): 1.2 nM | Kd (Human NRP-1 His [3]): 0.12 nM | Kd (Cyno NRP-1 His [4]): 0.19 nM | Kd (Mouse NRP-1 His [5]): 0.16 nM | IC50 (recombinant human NRP-1 [11]): 3.2 nM

B11: MAB8 (antibody, V domains shown)
VH: B8 VH with S30A, V32Y, A50I, A57S
VL: B8 VL
Kd (Human NRP-1 His [6]): 0.613 nM | Kd (Cyno NRP-1 His [7]): 0.642 nM | Kd (Mouse NRP-1 His [8]): 0.552 nM | IC50 (recombinant human NRP-1 [9]): 2 nM | IC50 (recombinant human NRP-1 [10]): 7.3 nM

B12: MAB9 (antibody, V domains shown)
VH: B8 VH with S30K, V32Y, A50I
VL: B8 VL
Kd (Human NRP-1 His [6]): 0.645 nM | Kd (Cyno NRP-1 His [7]): 0.643 nM | Kd (Mouse NRP-1 His [8]): 0.566 nM | IC50 (recombinant human NRP-1 [9]): 1.8 nM | IC50 (recombinant human NRP-1 [10]): 6.5 nM

B17: MAB7 (antibody, V domains shown)
VH: EVQLVESGGGLVQPGGSLRLSCAASGFTFSSYWMEWVRQAPGKGLEWVARIKRDGSEKYYVDSVKGRFTISRDNAKNSLYLQMNSLRAEDTAVYYCARDQGYKTPTDFDLWGRGTLVTVSS
VL: DIQMTQSPSSLSASVGDRVTITCQASQDITNYLNWYQQKPGKAPKLLIYDASNLETGVPSRFSGSGSGTDFTFTISSLQPEDIATYYCQQSDVLPITFGGGTKVEIK
Kd (Human NRP-1 His [6]): 11.2 nM | Kd (Cyno NRP-1 His [7]): 10.9 nM | Kd (Mouse NRP-1 His [8]): 14.7 nM | IC50 (recombinant human NRP-1 [9]): 1.7 nM | IC50 (recombinant human NRP-1 [10]): 6.9 nM
